# Test results published in patent publication US20090275637.
# Target: T1, PTP1B catalytic domain (321 residues), GST fusion (Homo sapiens) (UniProt P18031)
# T1 sequence: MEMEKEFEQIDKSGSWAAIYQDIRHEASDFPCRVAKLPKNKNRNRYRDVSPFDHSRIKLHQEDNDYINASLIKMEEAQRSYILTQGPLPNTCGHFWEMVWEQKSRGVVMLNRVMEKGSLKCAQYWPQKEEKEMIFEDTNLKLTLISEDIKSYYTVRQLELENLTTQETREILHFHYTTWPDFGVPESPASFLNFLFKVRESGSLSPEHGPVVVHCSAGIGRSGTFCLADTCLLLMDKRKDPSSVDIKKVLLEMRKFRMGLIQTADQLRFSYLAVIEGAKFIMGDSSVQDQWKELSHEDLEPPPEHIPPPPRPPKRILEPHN
# Experiment: filter
# Conditions: round 0 pool, 200-400 nM PTP1B, 125 mM NaCl, 5 mM MgCl2
sequence,measurement,value
GGGAAUGGAUCCACAUCUACGAAUUCNNNNNNNNNNNNNNNNNNNNNNNNNNNNNNUUCACUGCAGACUUGACGAAGCUU [N30 initial pool],binding,< 1 % retained
